T1: chimeric human integrin alpha-2 carrying the alpha-11 I-domain, mCherry fusion, on C2C12 cells (human, UniProt P17301 30-168; Q9UKX5 161-355; P17301 367-1181)
T1 construct: also called chimeric alpha-11Ialpha2mCherry; not shown: mCherry tag
T1 sequence (looked up): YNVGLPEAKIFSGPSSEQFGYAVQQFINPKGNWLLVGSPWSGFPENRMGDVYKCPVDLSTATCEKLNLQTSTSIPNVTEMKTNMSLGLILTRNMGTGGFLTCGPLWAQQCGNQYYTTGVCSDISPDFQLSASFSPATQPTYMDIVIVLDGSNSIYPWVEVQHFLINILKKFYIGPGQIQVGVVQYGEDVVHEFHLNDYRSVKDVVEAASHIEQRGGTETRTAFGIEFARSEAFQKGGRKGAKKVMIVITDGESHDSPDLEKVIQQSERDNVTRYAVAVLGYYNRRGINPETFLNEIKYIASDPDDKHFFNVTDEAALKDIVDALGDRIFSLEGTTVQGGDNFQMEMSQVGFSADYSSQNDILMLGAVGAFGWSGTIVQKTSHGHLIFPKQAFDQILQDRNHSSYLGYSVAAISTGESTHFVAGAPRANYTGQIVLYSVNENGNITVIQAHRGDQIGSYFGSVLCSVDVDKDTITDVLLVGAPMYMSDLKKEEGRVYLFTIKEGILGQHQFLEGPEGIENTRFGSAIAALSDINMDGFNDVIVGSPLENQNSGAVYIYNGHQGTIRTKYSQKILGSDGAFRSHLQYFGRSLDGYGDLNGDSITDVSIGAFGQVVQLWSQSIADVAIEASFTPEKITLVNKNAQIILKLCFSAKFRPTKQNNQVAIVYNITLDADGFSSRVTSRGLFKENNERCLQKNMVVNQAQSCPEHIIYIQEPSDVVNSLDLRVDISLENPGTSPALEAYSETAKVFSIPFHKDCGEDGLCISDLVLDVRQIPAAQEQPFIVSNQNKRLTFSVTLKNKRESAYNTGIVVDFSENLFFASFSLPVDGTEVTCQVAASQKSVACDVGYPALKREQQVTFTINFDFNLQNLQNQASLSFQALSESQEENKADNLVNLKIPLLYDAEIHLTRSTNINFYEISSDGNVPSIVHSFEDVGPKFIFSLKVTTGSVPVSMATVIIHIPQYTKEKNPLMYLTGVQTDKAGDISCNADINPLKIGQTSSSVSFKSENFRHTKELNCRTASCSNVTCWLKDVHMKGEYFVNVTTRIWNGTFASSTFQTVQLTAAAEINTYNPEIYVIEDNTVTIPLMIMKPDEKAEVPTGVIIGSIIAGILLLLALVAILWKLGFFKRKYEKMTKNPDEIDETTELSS

T2: human integrin α11-EGFP expressed on C2C12 mouse myoblast cells (human, UniProt Q9UKX5 23-1188)
T2 construct: whole, on cells; Alpha chain fused to EGFP, expressed in mouse C2C12 cells, which express no human integrins; the beta-1 partner chain on these cells is not described; In the Western blot the cell lysate was used; also called C2C12-α11 EGFP; C2C12-hu α11-EGFP; not shown: EGFP tag
T2 sequence (looked up): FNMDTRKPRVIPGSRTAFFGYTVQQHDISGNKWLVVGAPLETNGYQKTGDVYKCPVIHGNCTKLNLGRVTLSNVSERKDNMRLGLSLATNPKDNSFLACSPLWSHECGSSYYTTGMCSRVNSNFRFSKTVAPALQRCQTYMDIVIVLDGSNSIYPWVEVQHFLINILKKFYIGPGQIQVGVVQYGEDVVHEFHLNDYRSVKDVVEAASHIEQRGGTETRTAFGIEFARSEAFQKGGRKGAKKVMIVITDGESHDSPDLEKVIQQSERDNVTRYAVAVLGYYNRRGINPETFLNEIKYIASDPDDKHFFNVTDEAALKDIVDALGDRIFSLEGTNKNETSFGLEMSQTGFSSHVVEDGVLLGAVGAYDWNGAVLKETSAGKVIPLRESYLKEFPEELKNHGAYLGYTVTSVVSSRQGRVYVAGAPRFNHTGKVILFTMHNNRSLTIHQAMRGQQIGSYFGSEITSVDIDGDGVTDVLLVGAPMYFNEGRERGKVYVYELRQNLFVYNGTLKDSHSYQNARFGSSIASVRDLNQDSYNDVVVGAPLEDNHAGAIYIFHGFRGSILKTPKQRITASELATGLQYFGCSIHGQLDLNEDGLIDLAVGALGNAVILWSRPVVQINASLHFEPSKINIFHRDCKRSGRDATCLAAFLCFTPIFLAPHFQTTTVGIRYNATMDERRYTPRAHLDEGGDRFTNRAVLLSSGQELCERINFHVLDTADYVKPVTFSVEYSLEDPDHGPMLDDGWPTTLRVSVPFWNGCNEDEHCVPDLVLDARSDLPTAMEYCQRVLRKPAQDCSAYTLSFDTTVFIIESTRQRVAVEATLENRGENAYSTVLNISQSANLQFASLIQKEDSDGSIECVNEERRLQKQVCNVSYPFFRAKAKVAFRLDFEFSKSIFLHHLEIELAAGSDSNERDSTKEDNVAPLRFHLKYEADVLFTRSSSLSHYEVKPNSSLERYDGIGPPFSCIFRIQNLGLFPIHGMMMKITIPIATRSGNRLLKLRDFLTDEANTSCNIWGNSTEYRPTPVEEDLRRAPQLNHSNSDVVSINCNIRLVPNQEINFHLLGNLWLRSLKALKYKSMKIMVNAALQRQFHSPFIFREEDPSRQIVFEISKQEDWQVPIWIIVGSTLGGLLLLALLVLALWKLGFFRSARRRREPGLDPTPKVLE

T3: human integrin alpha-2-mCherry expressed on C2C12 cells (human, UniProt P17301 30-1181)
T3 construct: whole, on cells; Transfected C2C12 cells fixed with 2% paraformaldehyde/PBS before staining; not shown: mCherry tag
T3 sequence (looked up): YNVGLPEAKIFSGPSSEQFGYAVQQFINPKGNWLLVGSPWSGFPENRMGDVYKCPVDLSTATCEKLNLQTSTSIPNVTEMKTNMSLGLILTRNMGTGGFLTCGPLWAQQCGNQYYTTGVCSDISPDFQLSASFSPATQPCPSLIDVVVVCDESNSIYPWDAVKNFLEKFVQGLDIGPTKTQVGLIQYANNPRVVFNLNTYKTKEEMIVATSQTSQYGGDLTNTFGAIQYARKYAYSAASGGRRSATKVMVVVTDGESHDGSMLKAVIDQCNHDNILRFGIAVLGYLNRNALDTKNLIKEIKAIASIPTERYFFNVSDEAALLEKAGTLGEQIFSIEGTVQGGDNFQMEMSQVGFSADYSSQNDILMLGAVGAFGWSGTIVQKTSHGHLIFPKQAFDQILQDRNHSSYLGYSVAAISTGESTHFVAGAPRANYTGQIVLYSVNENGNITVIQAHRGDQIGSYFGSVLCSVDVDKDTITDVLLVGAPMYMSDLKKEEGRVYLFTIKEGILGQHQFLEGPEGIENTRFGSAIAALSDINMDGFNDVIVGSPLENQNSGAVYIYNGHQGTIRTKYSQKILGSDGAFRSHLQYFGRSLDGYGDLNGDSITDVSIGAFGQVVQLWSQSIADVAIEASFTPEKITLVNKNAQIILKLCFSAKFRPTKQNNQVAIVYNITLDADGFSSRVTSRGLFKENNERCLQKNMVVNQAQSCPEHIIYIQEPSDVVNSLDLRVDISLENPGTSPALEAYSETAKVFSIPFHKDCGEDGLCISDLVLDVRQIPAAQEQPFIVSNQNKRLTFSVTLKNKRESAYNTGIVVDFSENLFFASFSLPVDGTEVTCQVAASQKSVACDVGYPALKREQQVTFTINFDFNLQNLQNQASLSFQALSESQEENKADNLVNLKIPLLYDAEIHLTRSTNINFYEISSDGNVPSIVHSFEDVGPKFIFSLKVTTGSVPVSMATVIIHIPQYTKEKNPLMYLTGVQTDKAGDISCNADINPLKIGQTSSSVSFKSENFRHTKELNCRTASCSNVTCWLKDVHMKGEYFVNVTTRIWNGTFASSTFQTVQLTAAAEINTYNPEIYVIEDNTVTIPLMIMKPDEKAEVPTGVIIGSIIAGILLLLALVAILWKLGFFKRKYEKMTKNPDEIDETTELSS


What was measured:
Assay in all cases: flow cytometry on fixed transfected C2C12 cells
[1] = molecular target: T1, chimeric human integrin alpha-2 …
Procedure: (§1) To identify the epitope of the deposited integrin alpha-11 monoclonal antibodies. C2C12 cells were transfected with plasmids containing cDNAs encoding human integrin alpha-2-mCherry, human integrin alpha-11-EGFP, chimeric alpha-11Ialpha2mCherry or chimeric alpha-21-alpha-11EGFP as shown in FIG. 4a. Transfection was conducted as described in the art. 2% paraformaldehyde/PBS fixed transfected C2C12 cells were incubated with either antibody 203E1H5, see FIG. 4b or with antibody 234H11E8, see FIG. 4c, mouse anti-human alpha-11 IgG antibodies according to the present invention and then incubated with conjugated goat-anti mouse IgG, Alexa Fluor® 647 and analysed using a FACS Accuri measuring the dye accordingly.

[2] = molecular target: T2, human integrin α11-EGFP expressed on …
Procedure: as §1

[3] = molecular target: T3, human integrin alpha-2-mCherry …
Procedure: as §1

binding result [1] | binding result [2] | binding result [3] | Binder
no binding | binds | no binding | monoclonal mouse antibody 234 H11E8 produced by the hybridoma deposited as DSM ACC3319 (antibody, V domains shown, Mouse anti-human alpha-11 IgG from a hybridoma (NT-HRM mice); used as hybridoma supernatant or mAb; constant regions are not; also called 234H11E8 mAb; α11 234H11E8 mAb) VH: QVQLKESGPGLVAPSQSLSITCTVSGFSLTNSAVHWVRQSPGKGLEWLGVVWSYGSTDYNAAFISRLSITKDNSKSQVFFKMNSLQADDTAIYYCARSQIYADYYDYFDYWGQGTTLTVSS VL: DIQMTQSTSSLSASLGDRVTISCRASQDISNFLNWSQQKPDGTVKLLIYYTSRLHSGVPSRFSGSGSGTDYSLTISNLEQEDIGTYFCQQGNTLPLTFGAGTKLELR
no binding | – | no binding | monoclonal mouse antibody 203 E1H5 produced by the hybridoma deposited as DSM ACC3318 (antibody, V domains shown, Mouse anti-human alpha-11 IgG from a hybridoma (NT-HRM mice); used as hybridoma supernatant or mAb; also called 203E1H5 mAb; α11 203E1H5 mAb) VH: QVQLKESGPGLVAPSQSLSITCTVSGFSLTNYAVHWVRQSPGKGLEWLGVIWSYGSTDYNAAFISKLSISKDNSKSQVFFTMSSLQADDTAIYYCARSQIYGGFYDFFDFWGQGTTLTVSS VL: CDIQMTQTPSSLSASLGDRVTIICRASQDISNFLNWFQQKPDGTIKLLIYYSSRLHSGVPSRFSGSGSGTDYSLTISNLEQEDLATYFCQQGNTLPLTFGAGTKLELT

Reference: patent US20210079099A1 (VESTLANDETS INNOVASJONSSELSKAP, published 2021)
